The values below come from PMC9287719.

Read-outs that look alike come from different tables or passages of the source.

Assay [1] concerns the target Recombinant FcγRIIa (R131) with C-terminus Biotin (human) (UniProt P12318).
The target of assay [2] is Recombinant FcγRIIb with C-terminus Biotin (human) (UniProt P31994).
The target of assay [3] is Recombinant FcγRIIIa (F158) with C-terminus Biotin (human) (UniProt P08637).
The target in assay [4] is Recombinant FcγRIIa (H131) with C-terminus Biotin (human) (UniProt P12318).
The target of assay [5] is Recombinant FcγRIIIa (V158) with C-terminus Biotin (human).
Target sequence in this assay (P08637 17-208 F176V): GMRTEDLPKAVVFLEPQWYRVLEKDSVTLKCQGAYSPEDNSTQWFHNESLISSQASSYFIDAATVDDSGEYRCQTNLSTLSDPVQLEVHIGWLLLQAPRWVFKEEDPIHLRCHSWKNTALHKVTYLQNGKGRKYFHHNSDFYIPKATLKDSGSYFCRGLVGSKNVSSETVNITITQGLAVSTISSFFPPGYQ
For assay [6], the target named is Recombinant FcγRIIa (H131) with C-terminus Biotin (human) (UniProt P12318). The source holds these as a separate data set.
The target in assay [7] is Recombinant FcγRIIa (R131) with C-terminus Biotin (human) (UniProt P12318). The source holds these as a separate data set.
Assay [8] concerns the target Recombinant FcγRI with C-terminus Biotin (human) (UniProt P12314).
The target of assay [9] is Recombinant FcγRIIIa (V158) with C-terminus Biotin (human). This is another data set of the same source.
Target sequence in this assay (P08637 17-208 F176V): as above
The target of assay [10] is Recombinant FcγRIIa (H131) with C-terminus Biotin (human) (UniProt P12318). This is another data set of the same source.
Assay [11] deals with Recombinant FcγRIIa (R131) with C-terminus Biotin (human) (UniProt P12318). This is another data set of the same source.
Assay [12] addresses Recombinant FcγRI with C-terminus Biotin (human) (UniProt P12314). This is another data set of the same source.
Assay [13] concerns the target Recombinant FcγRIIb with C-terminus Biotin (human) (UniProt P31994). As to the kind of experiment: other; qualitative only.
The target in assay [14] is Recombinant FcγRIIIa (F158) with C-terminus Biotin (human) (UniProt P08637). As to the kind of experiment: split reporter (BiFC, NanoBiT); homogeneous competition assay in solution for FcγRIIa and FcγRIIIa variants: sample competes with IgG-LgBiT tracer for FcγR-Biotin mixed 1:1 with Streptavidin-SmBiT; 30–60 min; PBS with 10% superblock; IC50 equivalent to apparent affinity (KD).

Assay [15] deals with Recombinant FcγRIIIa (V158) with C-terminus Biotin (human). Described as above.
For assay [16], the target named is Recombinant FcγRIIa (H131) with C-terminus Biotin (human) (UniProt P12318). Described as above.
Assay [17] has as its target Recombinant FcγRIIa (R131) with C-terminus Biotin (human). The assay is described as above.

Recombinant FcγRIIa (R131) with C-terminus Biotin (human) (UniProt P12318), sequence (P12318 34-217 H167R): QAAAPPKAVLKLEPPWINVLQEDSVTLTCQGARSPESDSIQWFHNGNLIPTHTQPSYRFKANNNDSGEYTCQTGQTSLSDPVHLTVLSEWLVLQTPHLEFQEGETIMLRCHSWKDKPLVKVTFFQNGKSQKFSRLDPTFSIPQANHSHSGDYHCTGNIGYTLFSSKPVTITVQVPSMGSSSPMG
Human IgG4, sequence (P01861 whole entry, looked up): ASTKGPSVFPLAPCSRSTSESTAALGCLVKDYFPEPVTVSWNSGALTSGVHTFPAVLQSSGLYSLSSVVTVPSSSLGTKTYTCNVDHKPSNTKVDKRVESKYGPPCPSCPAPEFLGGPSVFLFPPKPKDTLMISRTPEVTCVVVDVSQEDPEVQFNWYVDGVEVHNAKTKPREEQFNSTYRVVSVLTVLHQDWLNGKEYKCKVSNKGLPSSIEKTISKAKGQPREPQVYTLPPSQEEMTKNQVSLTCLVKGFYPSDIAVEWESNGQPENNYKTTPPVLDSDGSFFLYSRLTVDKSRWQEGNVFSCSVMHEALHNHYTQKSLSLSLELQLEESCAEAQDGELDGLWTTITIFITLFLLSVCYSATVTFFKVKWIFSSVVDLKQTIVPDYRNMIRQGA
Recombinant FcγRIIa (H131) with C-terminus Biotin (human), sequence (P12318 34-217): as the sequence (P12318 34-217 H167R) above, with R134H counted along it
Human IgG2, sequence (P01859 whole entry, looked up): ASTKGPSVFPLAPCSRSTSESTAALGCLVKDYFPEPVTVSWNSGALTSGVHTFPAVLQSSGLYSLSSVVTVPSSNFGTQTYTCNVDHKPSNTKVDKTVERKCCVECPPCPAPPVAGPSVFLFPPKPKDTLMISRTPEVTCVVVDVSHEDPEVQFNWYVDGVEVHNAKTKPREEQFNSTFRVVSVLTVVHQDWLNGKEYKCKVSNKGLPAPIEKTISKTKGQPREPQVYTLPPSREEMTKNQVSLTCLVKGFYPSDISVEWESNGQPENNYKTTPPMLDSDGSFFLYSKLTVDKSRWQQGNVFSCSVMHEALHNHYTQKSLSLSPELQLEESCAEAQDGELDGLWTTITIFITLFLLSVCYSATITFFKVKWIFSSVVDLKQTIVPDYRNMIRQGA
Recombinant FcγRIIb with C-terminus Biotin (human), sequence (P31994 43-217): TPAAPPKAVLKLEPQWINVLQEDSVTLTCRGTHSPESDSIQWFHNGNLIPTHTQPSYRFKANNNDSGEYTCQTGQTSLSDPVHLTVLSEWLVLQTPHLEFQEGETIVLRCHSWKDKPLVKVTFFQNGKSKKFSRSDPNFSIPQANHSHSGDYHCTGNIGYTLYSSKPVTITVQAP
Recombinant FcγRI with C-terminus Biotin (human), sequence (P12314 16-292): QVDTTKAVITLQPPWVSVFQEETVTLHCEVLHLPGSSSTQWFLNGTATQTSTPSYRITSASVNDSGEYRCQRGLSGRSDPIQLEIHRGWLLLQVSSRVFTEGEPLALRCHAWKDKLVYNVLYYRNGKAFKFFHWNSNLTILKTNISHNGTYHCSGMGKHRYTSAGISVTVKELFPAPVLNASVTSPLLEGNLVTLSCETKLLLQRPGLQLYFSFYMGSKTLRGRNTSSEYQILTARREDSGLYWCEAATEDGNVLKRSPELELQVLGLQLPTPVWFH
Recombinant FcγRIIIa (F158) with C-terminus Biotin (human), sequence (P08637 17-208): as the sequence (P08637 17-208 F176V) above, with V160F counted along it

For the substance Gammagard (from UniProt P01857), the half-maximal inhibitory concentration (IC50) in [1] was 178 nM; in [2], 1120 nM; in assay [3], 95.5 nM; in assay [4], 55.8 nM; in assay [5], 12.5 nM.

With Human IgG2 (from UniProt P01859), the IC50 in assay [6] amounted to 77.1 nM; in assay [7] it was 519 nM; in [8], 29.4 nM; in assay [9], 2040 nM.

Take Human IgG4 (from UniProt P01861): the IC50 came to 102 nM in assay [10], 128 nM in assay [11], 1.07 nM in [12] and 573 nM in [13].

As for “Human IgG (human polyclonal IgG) (antibody)”, the half-inhibitory concentration (IC50) in assay [14] turned out to be 107 nM; in assay [15] it was 18.4 nM; in [16] it was 11.3 nM; in assay [17], 42.6 nM.

In general, IC50 refers to the concentration at which inhibition is half-maximal.
